Measurements taken from patent publication US12692310B2, “ASIC1 channel antagonist antibody” (ShanghaiTech University, priority 2019, dated 2026).

Assays:
hASIC1a Y318A = target: T1, hASIC1a Y318A (Homo sapiens, UniProt P78348, Y318A); experiment: FACS binding to alanine mutant hASIC1a-eYFP on CHO-K1 cells; assay type: cell-based; settings: vs WT hASIC1a
T1 construct: expressed in transfected cells; host or cells: CHO-K1, transient
T1 sequence (P78348 1-528 Y318A): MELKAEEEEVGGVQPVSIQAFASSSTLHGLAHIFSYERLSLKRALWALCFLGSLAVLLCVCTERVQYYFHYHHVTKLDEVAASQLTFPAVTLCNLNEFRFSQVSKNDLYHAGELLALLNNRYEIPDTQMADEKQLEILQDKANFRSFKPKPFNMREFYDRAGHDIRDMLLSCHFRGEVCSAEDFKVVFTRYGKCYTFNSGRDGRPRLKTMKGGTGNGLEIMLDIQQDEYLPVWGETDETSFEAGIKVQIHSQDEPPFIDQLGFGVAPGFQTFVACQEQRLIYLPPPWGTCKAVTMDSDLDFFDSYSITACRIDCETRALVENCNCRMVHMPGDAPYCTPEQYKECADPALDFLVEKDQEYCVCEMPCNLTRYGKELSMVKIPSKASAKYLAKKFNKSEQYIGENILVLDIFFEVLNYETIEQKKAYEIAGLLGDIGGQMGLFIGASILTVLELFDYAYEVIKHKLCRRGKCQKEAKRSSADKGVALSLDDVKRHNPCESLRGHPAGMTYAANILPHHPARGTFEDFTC
Description: (§1) To confirm the role of these amino acids, alanine mutagenesis was performed and four amino acids are very important for antibody binding were identified. Plasmid encoding single amino acid mutation of hASIC1a-eYFP was constructed and transient transfected into CHO-K1 cells. FACS binding assay was then performed to test whether the ASC06-IgG1 still binds to cell surface expressing mutated hASIC1a.

hASIC1a Y360A = target: T2, hASIC1a Y360A (Homo sapiens, UniProt P78348, Y360A); experiment: as above; assay type: cell-based; settings: vs WT hASIC1a
T2 construct: expressed in transfected cells; host or cells: CHO-K1, transient
T2 sequence (P78348 1-528 Y360A): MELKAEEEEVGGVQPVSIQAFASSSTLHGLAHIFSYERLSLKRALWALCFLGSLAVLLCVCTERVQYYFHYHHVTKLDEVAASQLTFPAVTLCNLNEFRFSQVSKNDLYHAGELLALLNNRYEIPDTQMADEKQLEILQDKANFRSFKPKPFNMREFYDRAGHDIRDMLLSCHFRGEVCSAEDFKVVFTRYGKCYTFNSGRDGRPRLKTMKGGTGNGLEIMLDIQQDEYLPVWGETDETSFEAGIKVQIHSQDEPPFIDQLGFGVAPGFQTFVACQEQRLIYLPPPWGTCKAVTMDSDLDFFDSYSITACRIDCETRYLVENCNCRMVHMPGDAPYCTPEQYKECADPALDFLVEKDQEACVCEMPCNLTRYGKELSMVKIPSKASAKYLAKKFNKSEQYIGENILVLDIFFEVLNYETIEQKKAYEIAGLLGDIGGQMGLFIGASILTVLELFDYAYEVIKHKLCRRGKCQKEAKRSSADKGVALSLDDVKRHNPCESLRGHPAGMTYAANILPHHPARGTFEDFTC
Description: as §1

hASIC1a N322A = target: T3, hASIC1a N322A (Homo sapiens, UniProt P78348, N322A); experiment: as above; assay type: cell-based; settings: vs WT hASIC1a
T3 construct: expressed in transfected cells; host or cells: CHO-K1, transient
T3 sequence (P78348 1-528 N322A): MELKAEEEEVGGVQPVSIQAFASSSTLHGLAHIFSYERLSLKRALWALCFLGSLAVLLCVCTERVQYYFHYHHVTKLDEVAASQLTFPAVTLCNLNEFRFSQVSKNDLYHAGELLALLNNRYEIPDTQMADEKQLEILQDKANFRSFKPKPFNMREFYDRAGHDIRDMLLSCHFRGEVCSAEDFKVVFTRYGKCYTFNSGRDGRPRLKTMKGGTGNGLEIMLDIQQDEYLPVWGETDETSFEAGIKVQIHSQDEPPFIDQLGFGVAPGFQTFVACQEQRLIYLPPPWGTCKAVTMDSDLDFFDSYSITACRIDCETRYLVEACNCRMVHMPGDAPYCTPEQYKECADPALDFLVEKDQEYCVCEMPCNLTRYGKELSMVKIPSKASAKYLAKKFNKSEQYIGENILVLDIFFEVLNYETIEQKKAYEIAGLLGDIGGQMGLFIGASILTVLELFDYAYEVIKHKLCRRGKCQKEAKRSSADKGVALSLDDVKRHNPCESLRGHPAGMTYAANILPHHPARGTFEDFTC
Description: as §1

[1] = tested on: primary cortical neurons from the ASIC1a KO mice (ASIC1a−/−); experiment: ICC staining of primary cortical neurons from ASIC1a KO mice; assay type: cell-based, mouse
Description: Cell Culture. The CHO-K1 cell line (#CRL-9618; ATCC) was maintained in an F-12k media (#21127022; Gibco) containing 10% (vol/vol) FBS (#1600074; Gibco), whereas the FreeStyle 293F (#R79007; ThermoFisher Scientific) cell line was cultured in a Freestyle 293 expression media (#12338026; Thermo-Fisher Scientific). Spodoptera frugiperda 9 (Sf9) cells (#12659017; Thermo-Fisher Scientific) was cultured at 27° C. in an ESF921 media (#96-001-01; Expression Systems). Primary cortical neurons dissected from E18-d-old C57 BL/6 mice or ASIC1a^−/− mice were maintained in a Neurobasal media (#21103049; Gibco) supplemented with B27 (#17504044; Gibco) and Glutamx I (#35050061; Gibco). The CHO-K1/hASIC1a stable cell line overexpressing the full-length hASIC1a (1-528 amino acids) channel was generated as follows: The cDNA of the full-length hASIC1a with a C-terminal eYFP fusion or a C-terminal mCherry fusion was constructed, cloned into a pCDNA3.1-Neo expressing vector, and transfected into the CHO-K1 cells using Lipofectin 2000. The CHO-K1/hASIC1a stable cell line was selected by the antibiotic, geneticin (up to 1 mg/mL), and validated by the fused fluorescence proteins eYFP (λex=488 nm; λem=528 nm) or mCherry fluorescence (λex=587 nm; λem=610 nm) using flow cytometry. Over 80% positive cells survived when cultured in the presence of 200 µg/mL geneticin for 30 days. […]

B1: ASC06-IgG1: ASC06 antibody converted into a full length IgG1 form (antibody, V domains shown)
VH: QVQLQQSGGGLVQPGGSLRLSCAASGFTFSSYAMSWVRQAPGKGLEWVSAISGSGGSTYYADSVKGRFTISRDNSKNTLYLQMNSLRAEDTAVYYCAKDSFYGYSKGDWGQGTLVTVSS
VL: QSALTQPASVSGSPGQSITISCTGTSSDVGAYNYVSWYQQQPGKAPKLMIYGVSNRPSGVSNRFSGSKSGNAASLTISGLQAEDEADYYCSSYTSSSTYVFGTGTKLTVLG
binding to hASIC1a Y318A mutation (hASIC1a Y318A): abolished
binding to hASIC1a Y360A mutation (hASIC1a Y360A): decrease
binding to hASIC1a N322A mutation (hASIC1a N322A): decrease
binding to KO neurons transfected with hASIC1a-mCherry ([1]; transfected with hASIC1a-mCherry): binding occurs in the postsynaptic dendrites
binding to primary neurons from the KO mice ([1]; untransfected ASIC1a−/− neurons): no apparent binding
